In patent US6773917 (CURATORS OF THE UNIVERSITY OF MISSOURI, dated 2004):

What was measured:
[1] = biological target: T1, in vitro imported Arabidopsis thaliana plastid PDC E1α subunit (Arabidopsis thaliana, UniProt O24457 69-428); assay: in vitro import into chloroplasts and assembly
T1 construct: Translated in vitro and imported into chloroplasts
T1 sequence: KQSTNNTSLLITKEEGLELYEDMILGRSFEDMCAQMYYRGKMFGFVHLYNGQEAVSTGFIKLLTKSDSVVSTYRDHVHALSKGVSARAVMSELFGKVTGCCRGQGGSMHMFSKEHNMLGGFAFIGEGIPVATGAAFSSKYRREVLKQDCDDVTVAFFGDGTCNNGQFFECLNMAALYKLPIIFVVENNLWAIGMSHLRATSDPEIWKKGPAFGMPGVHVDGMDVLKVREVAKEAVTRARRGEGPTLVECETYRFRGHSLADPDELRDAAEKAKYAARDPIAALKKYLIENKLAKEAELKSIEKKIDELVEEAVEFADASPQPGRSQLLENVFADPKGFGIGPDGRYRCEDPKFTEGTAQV

[2] = biological target: T2, plastid pyruvate dehydrogenase heterotetramer (imported plastid PDC E1α and E1β subunits) (Arabidopsis thaliana, UniProt O24457 69-428; Q9C6Z3 74-406); assay: in vitro import into chloroplasts and assembly
T2 construct: also called this heterotetramer
T2 sequence 1: T1 sequence
T2 sequence 2: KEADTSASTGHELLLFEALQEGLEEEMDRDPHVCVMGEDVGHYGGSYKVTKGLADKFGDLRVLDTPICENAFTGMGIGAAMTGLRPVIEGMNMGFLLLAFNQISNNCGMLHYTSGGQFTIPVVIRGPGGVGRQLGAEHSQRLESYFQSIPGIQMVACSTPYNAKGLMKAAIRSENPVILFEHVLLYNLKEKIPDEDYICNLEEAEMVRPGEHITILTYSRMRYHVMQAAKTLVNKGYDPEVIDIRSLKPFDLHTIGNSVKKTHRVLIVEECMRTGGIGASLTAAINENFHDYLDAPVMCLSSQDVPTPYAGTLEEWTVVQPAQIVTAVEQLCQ

B1: in vitro imported Arabidopsis thaliana plastid PDC E1β subunit (enzyme)
chain: T2 sequence 2
notes: Translated in vitro and imported into chloroplasts
Q: Does B1 bind [1]?
A: Result: binds

B2: in vitro imported Arabidopsis thaliana plastid PDC E2 subunit (enzyme)
chain: IREIFMPALSSTMTEGKIVSWIKTEGEKLAKGESVVVVESDKADMDVETFYDGYLAAIVVGEGETAPVGAAIGLLAETEAEIEEAKSKAASKSSSSVAEAVVPSPPPVTSSPAPAIAQPAPVTAVSDGPRKTVATPYAKKLAKQHKVDIESVAGTGPFGRITASDVETAAGIAPSKSSIAPPPPPPPPVTAKATTTNLPPLLPDSSIVPFTAMQSAVSKNMIESLSVPTFRVGYPVNTDALDALYEKVKPKGVTMTALLAKAAGMALAQHPVVNASCKDGKSFSYNSSINIAVAVAINGGLITPVLQDADKLDLYLLSQKWKELVGKARSKQLQPHEYNSGTFTLSNLGMFGVDRFDAILPPGQGAIMAVGASKPTVVADKDGFFSVKNTMLVNVTADHRIVYGADLAAFLQTFAKIIENPDSLTL
notes: Translated in vitro and imported into chloroplasts; also called imported PDC E2 subunits
Q: Does B2 bind [2]?
A: Result: binds
